Laboratory results taken from patent US20220259283A1 (AARHUS UNIVERSITET, published 2022).

T1: sortilin (human, UniProt Q99523)
T1 construct: soluble, 6his-tagged; Injected at 25-250 nM over immobilized progranulin-6his as a comparison with SorCS2; also called hSortilin-6his; soluble human sortilin
T1 sequence (receptor, soluble form, looked up): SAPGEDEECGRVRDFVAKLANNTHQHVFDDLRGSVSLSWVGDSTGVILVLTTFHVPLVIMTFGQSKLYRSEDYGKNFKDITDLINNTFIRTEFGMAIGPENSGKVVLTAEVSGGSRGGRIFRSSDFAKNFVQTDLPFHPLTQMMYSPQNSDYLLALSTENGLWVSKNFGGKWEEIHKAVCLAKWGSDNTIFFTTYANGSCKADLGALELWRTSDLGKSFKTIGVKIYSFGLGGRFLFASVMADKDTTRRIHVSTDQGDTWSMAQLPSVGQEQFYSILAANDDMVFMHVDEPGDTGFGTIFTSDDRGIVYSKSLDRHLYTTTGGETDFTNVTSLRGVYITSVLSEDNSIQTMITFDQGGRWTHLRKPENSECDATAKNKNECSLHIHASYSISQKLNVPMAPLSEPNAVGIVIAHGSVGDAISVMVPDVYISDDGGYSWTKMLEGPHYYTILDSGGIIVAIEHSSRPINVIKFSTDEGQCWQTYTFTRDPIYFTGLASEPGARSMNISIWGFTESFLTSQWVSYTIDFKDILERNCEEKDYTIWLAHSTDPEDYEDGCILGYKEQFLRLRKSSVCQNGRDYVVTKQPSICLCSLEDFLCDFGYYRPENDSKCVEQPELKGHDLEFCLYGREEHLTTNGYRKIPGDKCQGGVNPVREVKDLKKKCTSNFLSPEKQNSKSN

B1: hPGRN-6his (human progranulin with a C-terminal 6his-tag) (ligand)
chain: TRCPDGQFCPVACCLDPGGASYSCCRPLLDKWPTTLSRHLGGPCQVDAHCSAGHSCIFTVSGTSSCCPFPEAVACGDGHHCCPRGFHCSADGRSCFQRSGNNSVGAIQCPDSQFECPDFSTCCVMVDGSWGCCPMPQASCCEDRVHCCPHGAFCDLVHTRCITPTGTHPLAKKLPAQRTNRAVALSSSVMCPDARSRCPDGSTCCELPSGKYGCCPMPNATCCSDHLHCCPQDTVCDLIQSKCLSKENATTDLLTKLPAHTVGDVKCDMEVSCPDGYTCCRLQSGAWGCCPFTQAVCCEDHIHCCPAGFTCDTQKGTCEQGPHQVPWMEKAPAHLSLPDPQALKRDVPCDNVSSCPSSDTCCQLTSGEWGCCPIPEAVCCSDHQHCCPQGYTCVAEGQCQRGSEIVAGLEKMPARRASLSHPRDIGCDQHTSCPVGQTCCPSLGGSWACCQLPHAVCCEDRQHCCPAGYTCNVKARSCEKEVVSAQPATFLARSPHVGVKDVECGEGHFCHDNQTCCRDNRQGWACCPYRQGVCCADRRHCCPAGFRCAARGTKCLRREAPRWDAPLRDPALRQLLHHHHHH
notes: Purified protein; also called progranulin-6his; human progranulin-6his
B2: tetrapeptide RQLL (peptide)
peptide: RQLL
notes: also called RQLL peptide; PGRN-derived tetra peptide
B3: Granulin E (ligand, UniProt P28799 518-593, looked up)
chain: DVECGEGHFCHDNQTCCRDNRQGWACCPYRQGVCCADRRHCCPAGFRCAARGTKCLRREAPRWDAPLRDPALRQLL
notes: domain: Granulin E; also called GrnE

How the values were obtained:
[1] = biological target: T2, hSorCS2-6his (extracellular domain of human SorCS2 with a C-terminal 6His-tag) (human, UniProt Q96PQ0 51-1076); test: SPR, hPGRN-6his injected over hSorCS2-6his immobilized on a CM5 chip
T2 construct: Made in CHO-K1 cells and purified from the medium; For crystallisation the protein was deglycosylated with PNGaseF; also called soluble human SorCS2; hSorCS2 extracellular domain
Description: (§1) Purified hPGRN-6his or hSorCS2-6his was immobilized on a CM5 sensor chip using standard amine-coupling. All sensograms were collected in PBS+0.05% Tween20 following injection of purified hPGRN-6his over immobilized hSorCS2-6his or hSortilin-6his and hSorCS2-6his with/without PGRN derived peptide over immobilized hPGRN-6his. Following this experimental setup we estimated the dissociation constant of the hSorCS2:hPGRN interaction to be 15 nM (FIG. 4). […] Inhibition experiments was performed using 100 nM hSorCS2 preincubated with 100 uM PGRN-derived tetra peptide and injected over immobilized hPGRN-6his (FIG. 7).

[2] = biological target: T2, hSorCS2-6his (extracellular domain of …); test: SPR, hSorCS2-6his injected over hPGRN-6his immobilized on a CM5 chip
Description: as §1

sortilin = biological target: T1, sortilin; test: SPR, soluble human sortilin injected over immobilized C-terminal his-tagged progranulin on a CM5 chip
Description: as §1

[3] = biological target: T2, hSorCS2-6his (extracellular domain of …); test: microscale thermophoresis, 25 nM labelled hSorCS2-6his, partner titrated, triplicates
Description: Equilibrium-binding affinities between hSorCS2 and hPGRN-6his, GrnE and RQLL peptide were assessed by MST. Purified hSorCS2-6his was labelled using the MO-003 monolith blue-NHS labelling kit according to manufactures recommendation. hSorCS2 was applied at a final concentration of 25 nM while the unlabelled binding partner was titrated in 1:1 dilutions (PBS+0.05% Tween20). MST measurements were performed in standard treated capilaiers on a monolith NT.115 instrument. For each binding partner the sigmoid-dose response curve was fitted with GraphPad prism 6 to yield an average dissociation constant.

[4] = biological target: B1; test: SPR, RQLL peptide alone injected over immobilized C-terminal his-tagged progranulin on a CM5 chip (control trace of the competition experiment)
Description: as §1

T2 sequence (Q96PQ0 other isoform, or with tags, fused parts or gaps): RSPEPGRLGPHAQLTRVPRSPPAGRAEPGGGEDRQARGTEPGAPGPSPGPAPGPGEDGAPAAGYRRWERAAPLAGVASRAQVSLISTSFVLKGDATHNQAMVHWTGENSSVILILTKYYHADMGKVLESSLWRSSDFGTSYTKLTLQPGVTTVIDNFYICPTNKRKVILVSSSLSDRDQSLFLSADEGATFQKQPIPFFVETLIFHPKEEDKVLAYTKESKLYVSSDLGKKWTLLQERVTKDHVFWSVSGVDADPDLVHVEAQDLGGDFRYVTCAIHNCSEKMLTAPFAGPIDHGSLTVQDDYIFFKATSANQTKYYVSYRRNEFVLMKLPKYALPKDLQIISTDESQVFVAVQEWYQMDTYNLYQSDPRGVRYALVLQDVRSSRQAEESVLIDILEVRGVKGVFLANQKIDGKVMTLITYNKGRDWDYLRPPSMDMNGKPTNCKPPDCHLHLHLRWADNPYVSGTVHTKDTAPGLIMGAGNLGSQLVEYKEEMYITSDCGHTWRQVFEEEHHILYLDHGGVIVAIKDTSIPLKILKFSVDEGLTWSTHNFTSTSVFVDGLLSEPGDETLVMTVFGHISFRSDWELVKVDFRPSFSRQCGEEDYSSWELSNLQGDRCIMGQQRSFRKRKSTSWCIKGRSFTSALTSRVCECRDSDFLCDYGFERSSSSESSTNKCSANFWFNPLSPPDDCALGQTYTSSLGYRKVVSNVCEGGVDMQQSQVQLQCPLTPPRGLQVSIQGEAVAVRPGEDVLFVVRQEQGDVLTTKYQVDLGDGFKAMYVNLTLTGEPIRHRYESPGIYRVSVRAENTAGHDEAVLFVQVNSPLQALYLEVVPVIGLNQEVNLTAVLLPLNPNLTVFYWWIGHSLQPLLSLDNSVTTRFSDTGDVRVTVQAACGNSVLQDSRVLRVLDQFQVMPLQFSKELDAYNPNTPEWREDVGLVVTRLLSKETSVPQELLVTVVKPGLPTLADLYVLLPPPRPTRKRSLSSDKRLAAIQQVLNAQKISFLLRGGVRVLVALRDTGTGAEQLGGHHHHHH

| Binder | Kd [1] [nM] | Kd [2] [nM] | binding result (sortilin) | Kd [3] [nM] | binding result [4] |
| --- | --- | --- | --- | --- | --- |
| B1 | 15 | 7.4 | no binding (tested: 250 nM) | 47.8 |  |
| B2 |  |  |  | 1000 | no binding (tested: 100 uM) |
| B3 |  |  |  | 2000 |  |
